Legend:
[1] = target: Hepatitis B surface antigen (HBsAg) (Hepatitis B virus) (UniProt P03138); experiment: pulldown; conditions: magnetic bead pulldown with q-PCR; BD buffer, room temperature
[2] = target: HCV NS3 protein (Hepatitis C virus) (UniProt P27958); experiment: pulldown; conditions: magnetic bead pulldown with q-PCR; BD buffer, room temperature
HCV NS3 protein (Hepatitis C virus), sequence (P27958 1027-1657): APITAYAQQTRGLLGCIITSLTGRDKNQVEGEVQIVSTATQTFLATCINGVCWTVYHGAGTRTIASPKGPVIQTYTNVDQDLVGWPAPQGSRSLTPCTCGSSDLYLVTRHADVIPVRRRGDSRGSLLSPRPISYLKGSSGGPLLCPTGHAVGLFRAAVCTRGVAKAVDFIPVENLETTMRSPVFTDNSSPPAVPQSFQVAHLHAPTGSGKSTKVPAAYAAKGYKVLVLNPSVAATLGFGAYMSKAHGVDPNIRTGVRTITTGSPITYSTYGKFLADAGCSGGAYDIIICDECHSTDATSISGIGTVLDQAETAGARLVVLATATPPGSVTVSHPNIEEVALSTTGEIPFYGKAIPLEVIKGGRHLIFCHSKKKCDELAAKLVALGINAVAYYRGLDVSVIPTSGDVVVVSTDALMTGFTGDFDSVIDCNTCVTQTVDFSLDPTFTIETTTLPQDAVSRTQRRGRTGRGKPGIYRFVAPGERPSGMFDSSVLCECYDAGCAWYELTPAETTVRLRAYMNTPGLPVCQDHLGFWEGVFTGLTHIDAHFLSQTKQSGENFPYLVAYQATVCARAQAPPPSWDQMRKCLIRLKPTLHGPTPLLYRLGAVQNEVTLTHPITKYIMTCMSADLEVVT

Sequence | Kd [1] | Kd [2]
AGCAGCACAGAGGTCCCAACCGGAATCTGCACCTCGCGTGCTACCGTGAA [K2-4] | 31.4 nM | 
AGCAGCACAGAGGTCCTGCATCACGAAGCCTGGCAGCGTGCTACCGTGAA [MP-1] | 28.3 nM | 23.3 nM
AGCAGCACAGAGGTCCCCATGTCCACCTTTCTGTGGCGTGCTACCGTGAA [K3-1] |  | 15.9 nM

Reference: patent publication US20180095078
